Results reported in US10967064B2, “Preparation method for a DNA origami based carrier system” (YEDITEPE UNIVERSITESI, priority 2016, dated 2021).

Assays:
[1] = Dynamic light scattering analysis of hydrodynamic size; assay type: physicochemical; details: DLS, dispersed in water
Procedure: In step 1), 2 μL of each complementary oligonucleotide from a 100 μM stock is added into the hybridization buffer TAE/Mg^2+ to have a final volume of 200 μL. The newly prepared DNA origami carrier is characterized using AFM, agarose gel electrophoresis and dynamic light scattering analysis.
For DLS measurements, DNA tiles are dispersed in water. In water, DNA tiles are solvated by water molecules. This hydration layer causes grater diameter than theoretical size of the structure. Hydrodynamic size of DNA tiles was determined as approximately 50 nm, which is in good agreement with AFM results.

MDA-MB-231 cell line = assay: Cytotoxicity of the DNA origami carrier (cell viability); assay type: cell-based; details: MDA-MB-231, concentration range 50-400 nM
Procedure: The cytotoxicity assessments of the DNA origami structure were carried out on MDA-MB-231 cell line at a concentration range of 50-400 nM. According to the cell viability results of the experiment, the DNA-tiles are non-toxic to the cells.

[2] = Atomic force microscopy (AFM) size of DNA tile on mica; assay type: physicochemical; details: dried on mica, non-contact mode; theoretical value 40 nm
Source text: The DNA tile samples taken from the hybridization media were dropped on mica surface for deposition and subsequently washed with deionized water. When the dropped DNA samples on mica were dried, images acquired at non-contact mode. Considering the distance between the base pairs in the DNA as 0.34 nm and the number of the base pairs in the DNA tile structure from one end to another, […], the theoretical length of an assembled DNA tile can be estimated as 40 nm. A representative AFM image obtained from the DNA tile containing dried droplet area is shown on FIG. 2. […] The marked structure is measured as 64 nm, which is larger than the theoretical value of 40 nm. […] Considering the fact that the formation of DNA based structures is not always 100 percent efficient, this deviation can be acceptable.

B1: DNA tiles: tile shaped DNA origami structure prepared by hybridizing nine complementary oligonucleotides (SEQ ID NOS: 1-9) (nucleic acid)
DNA 1: AGGCACCATCGTAGGAAAATCTGCGTCAGCTCTCCGTACACCAGTGCTTCCATGCGAAGTAAAACGTTCCGATCACCAACGGAGTAAAACGATCTAACTGATAACTAGCACCTCTGCTCACGTGAGGAGTAAAACTTGCC
DNA 2: ATACCGGAGGCTTCCTGTACGGAGAGCTGACGCAGACCTACGATGGACACGCCG
DNA 3: ATGCAACCTGCCTGGCAAGACTCCTCACGTGAGCAGAGGACTACTCATCCGTTA
DNA 4: TTTCCGACTGAGCCCTGCTAGTTATCAGTTAGATCGACTCCGTTGGACGAACAG
DNA 5: ATAGCGCCTGATCGGAACGACTTCGCATGGAAGCACTGGACCGTTCTACCGATT
DNA 6: CTCGCAATCGGTAGAACGGTGGAAGCCTCCGGTATGCATG
DNA 7: AAAAAAAAAACGGCGTGTGGTTGCATAAAAAAAAAA
DNA 8: CGCTATAACGGATGAGTAGTGGGCTCAGTCGGAAAGAGCA
DNA 9: AAAAAAAAAACTGTTCGTGGCGCTATAAAAAAAAAA
modifications: Oligonucleotide 1; Oligonucleotide 2; Oligonucleotide 3; Oligonucleotide 4; Oligonucleotide 5; Oligonucleotide 6; Oligonucleotide 7; Oligonucleotide 8; Oligonucleotide 9
Q: With B1 as the molecule, how does the Hydrodynamic size [1] read?
A: approximately 50 nm

Q: And the “Cytotoxicity (cell viability)” value (MDA-MB-231 cell line)?
A: non-toxic

Q: And the “Size of marked structure in AFM image” value [2]?
A: 64 nm
